In patent US20220169728A1 (AB THERAPEUTICS, published 2022):
Substitutions are numbered along the chain they refer to. In names and notes the source's numbering stands.

B1: CD20/CD3 BsMab with common VL (SEQ ID NO: 3) N93P (bispecific antibody, V domains shown)
VH 1: QVQLQQPGAELVKPGASVKMSCKASGYTFTSYNMHWVKQTPGRGLEWIGAIYPGNGDTSYNQKFKGKATLTADKSSSTAYMQLSSLRSEDSAVYYCARSTYYGGDWYFNVWGAGTTVTVSA
VH 2: EVQLQESGAELARPGASVKMSCKASGYTFTSYTMHWVKQRPGEGLEWIGYINPSSGYTKYNQKFKDKATLTADKSSSTAYMELSSLTSEDSAVYYCARWQDYDVYFDYWGEGTTLTVSS
VL: QIVLSQSPAILSASPGEKVTMTCRASSSVSYIHWFQQKPGSSPKPWIYATSNLASGVPVRFSGSGSGTSYSLTISRVEAEDAATYYCQQWTSPPPTFGGGTKLEIKR
B2: CD20/CD3 BsMab with common VL (SEQ ID NO: 3) H33A (bispecific antibody, V domains shown)
VH 1: B1 VH 1
VH 2: B1 VH 2
VL: B1 VL with H33A, P93N
B3: CD20/CD3 BsMab with common VL (SEQ ID NO: 3) H33M (bispecific antibody, V domains shown)
VH 1: B1 VH 1
VH 2: B1 VH 2
VL: B1 VL with H33M, P93N
B4: CD20/CD3 BsMab with common VL (SEQ ID NO: 3) H33L (bispecific antibody, V domains shown)
VH 1: B1 VH 1
VH 2: B1 VH 2
VL: B1 VL with H33L, P93N
B5: CD20/CD3 BsMab with common VL (SEQ ID NO: 3) P95T (bispecific antibody, V domains shown)
VH 1: B1 VH 1
VH 2: B1 VH 2
VL: B1 VL with P93N, P95T
B6: CD20/CD3 BsMab with common VL (SEQ ID NO: 3) N93Y (bispecific antibody, V domains shown)
VH 1: B1 VH 1
VH 2: B1 VH 2
VL: B1 VL with P93Y
B7: CD20/CD3 BsMab with common VL (SEQ ID NO: 3) H33T (bispecific antibody, V domains shown)
VH 1: B1 VH 1
VH 2: B1 VH 2
VL: B1 VL with H33T, P93N
B8: CD20/CD3 BsMab with common VL (SEQ ID NO: 3) Q88V (bispecific antibody, V domains shown)
VH 1: B1 VH 1
VH 2: B1 VH 2
VL: B1 VL with Q88V, P93N
B9: CD20/CD3 BsMab with common VL (SEQ ID NO: 3) N93L (bispecific antibody, V domains shown)
VH 1: B1 VH 1
VH 2: B1 VH 2
VL: B1 VL with P93L
B10: CD20/CD3 BsMab with common VL (SEQ ID NO: 3) H33G (bispecific antibody, V domains shown)
VH 1: B1 VH 1
VH 2: B1 VH 2
VL: B1 VL with H33G, P93N
B11: CD20/CD3 BsMab with common VL (SEQ ID NO: 3) H33W (bispecific antibody, V domains shown)
VH 1: B1 VH 1
VH 2: B1 VH 2
VL: B1 VL with H33W, P93N
B12: CD20/CD3 BsMab with common VL (SEQ ID NO: 3) N93F (bispecific antibody, V domains shown)
VH 1: B1 VH 1
VH 2: B1 VH 2
VL: B1 VL with P93F
B13: CD20/CD3 BsMab with common VL (SEQ ID NO: 3) H33V (bispecific antibody, V domains shown)
VH 1: B1 VH 1
VH 2: B1 VH 2
VL: B1 VL with H33V, P93N
B14: CD20/CD3 BsMab with common VL (SEQ ID NO: 3) H33D (bispecific antibody, V domains shown)
VH 1: B1 VH 1
VH 2: B1 VH 2
VL: B1 VL with H33D, P93N
B15: CD20/CD3 BsMab with common VL (SEQ ID NO: 3) H33S (bispecific antibody, V domains shown)
VH 1: B1 VH 1
VH 2: B1 VH 2
VL: B1 VL with H33S, P93N
B16: CD20/CD3 BsMab with common VL (SEQ ID NO: 3) N93V (bispecific antibody, V domains shown)
VH 1: B1 VH 1
VH 2: B1 VH 2
VL: B1 VL with P93V
B17: CD20/CD3 BsMab with common VL (SEQ ID NO: 3) P95V (bispecific antibody, V domains shown)
VH 1: B1 VH 1
VH 2: B1 VH 2
VL: B1 VL with P93N, P95V
B18: CD20/CD3 BsMab with common VL (SEQ ID NO: 3) H33E (bispecific antibody, V domains shown)
VH 1: B1 VH 1
VH 2: B1 VH 2
VL: B1 VL with H33E, P93N
B19: CD20/CD3 BsMab with common VL (SEQ ID NO: 3) P95A (bispecific antibody, V domains shown)
VH 1: B1 VH 1
VH 2: B1 VH 2
VL: B1 VL with P93N, P95A
B20: CD20/CD3 BsMab with common VL (SEQ ID NO: 3) H33P (bispecific antibody, V domains shown)
VH 1: B1 VH 1
VH 2: B1 VH 2
VL: B1 VL with H33P, P93N
B21: CD20/CD3 BsMab with common VL (SEQ ID NO: 3) N93T (bispecific antibody, V domains shown)
VH 1: B1 VH 1
VH 2: B1 VH 2
VL: B1 VL with P93T
B22: CD20/CD3 BsMab with common VL (SEQ ID NO: 3) N93Q (bispecific antibody, V domains shown)
VH 1: B1 VH 1
VH 2: B1 VH 2
VL: B1 VL with P93Q
B23: CD20/CD3 BsMab with common VL (SEQ ID NO: 3) H33R (bispecific antibody, V domains shown)
VH 1: B1 VH 1
VH 2: B1 VH 2
VL: B1 VL with H33R, P93N
B24: CD20/CD3 BsMab with common VL (SEQ ID NO: 3) N93G (bispecific antibody, V domains shown)
VH 1: B1 VH 1
VH 2: B1 VH 2
VL: B1 VL with P93G
B25: CD20/CD3 BsMab with common VL (SEQ ID NO: 3) P95Q (bispecific antibody, V domains shown)
VH 1: B1 VH 1
VH 2: B1 VH 2
VL: B1 VL with P93N, P95Q
B26: CD20/CD3 BsMab with common VL (SEQ ID NO: 3) N93A (bispecific antibody, V domains shown)
VH 1: B1 VH 1
VH 2: B1 VH 2
VL: B1 VL with P93A
B27: CD20/CD3 BsMab with common VL (SEQ ID NO: 3) N93S (bispecific antibody, V domains shown)
VH 1: B1 VH 1
VH 2: B1 VH 2
VL: B1 VL with P93S

Target: CD3 (Homo sapiens (Human), UniProt P07766 23-207; P04234 22-171; P09693 23-182)
Assay: cell-based or functional assay

Sequence of CD3 (P07766 23-207 limits assumed, chain 1 of 3): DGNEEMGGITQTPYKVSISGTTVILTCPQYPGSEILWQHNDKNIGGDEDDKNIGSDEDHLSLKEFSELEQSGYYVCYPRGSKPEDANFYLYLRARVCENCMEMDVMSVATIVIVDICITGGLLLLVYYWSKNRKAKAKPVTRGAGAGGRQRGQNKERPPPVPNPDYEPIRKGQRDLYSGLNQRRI
Sequence of CD3 (P04234 22-171 limits assumed, chain 2 of 3): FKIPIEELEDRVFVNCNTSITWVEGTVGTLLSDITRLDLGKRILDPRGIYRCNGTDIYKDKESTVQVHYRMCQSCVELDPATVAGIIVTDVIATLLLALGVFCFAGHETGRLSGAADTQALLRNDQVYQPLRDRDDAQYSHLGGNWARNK
Sequence of CD3 (P09693 23-182 limits assumed, chain 3 of 3): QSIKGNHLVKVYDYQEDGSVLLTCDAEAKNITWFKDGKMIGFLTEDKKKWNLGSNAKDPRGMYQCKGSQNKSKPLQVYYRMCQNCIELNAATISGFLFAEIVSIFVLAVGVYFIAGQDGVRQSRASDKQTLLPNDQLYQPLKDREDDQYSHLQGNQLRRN

| Binder | Function % 0.025 ug/ml (T cell activation, CD69 on Jurkat cells with Raji cells, against the unmutated baseline) | Function % 2 ug/ml (T cell activation, CD69 on Jurkat cells with Raji cells, against the unmutated baseline) |
| --- | --- | --- |
| B1 | 9% | 51% |
| B2 | 65% | 104% |
| B3 | 13% | 74% |
| B4 | 16% | 93% |
| B5 | 13% | 52% |
| B6 | 12% | 22% |
| B7 | 99% | 106% |
| B8 | 14% | 75% |
| B9 | 9% | 65% |
| B10 | 100% | 101% |
| B11 | 14% | 87% |
| B12 | 11% | 70% |
| B13 | 83% | 104% |
| B14 | 109% | 96% |
| B15 | 108% | 95% |
| B16 | 33% | 95% |
| B17 | 96% | 97% |
| B18 | 89% | 104% |
| B19 | 19% | 92% |
| B20 | 34% | 94% |
| B21 | 21% | 98% |
| B22 | 10% | 62% |
| B23 | 9% | 54% |
| B24 | 15% | 21% |
| B25 | 11% | 17% |
| B26 | 12% | 80% |
| B27 | 15% | 90% |
